Legend:
[1] = target: human PTK7 on human cancer cell lines (human) (UniProt Q13308); assay: flow cytometry, SK-OV-3 cells, isotype control
[2] = target: human PTK7 on human cancer cell lines (human) (UniProt Q13308); assay: flow cytometry, NCI-N87 cells, isotype control
[3] = target: human PTK7 on human cancer cell lines (human) (UniProt Q13308); assay: flow cytometry, BT-20 cells, isotype control
[4] = target: dog PTK7 on dog cancer cell lines (dog); assay: flow cytometry, D-17 dog cells, isotype control
[5] = target: human PTK7 on human cancer cell lines (human) (UniProt Q13308); assay: flow cytometry, PC-3 cells, isotype control
[6] = target: human PTK7 on human cancer cell lines (human) (UniProt Q13308); assay: flow cytometry, NCI-H226 cells, isotype control
[7] = target: human PTK7 on human cancer cell lines (human) (UniProt Q13308); assay: flow cytometry, A-431 cells, isotype control
[8] = target: human PTK7 on human cancer cell lines (human) (UniProt Q13308); assay: flow cytometry, NCI-H292 cells, isotype control
[9] = target: dog PTK7 on dog cancer cell lines (dog); assay: flow cytometry, CMT-U27 dog cells, isotype control
[10] = target: human PTK7 on human cancer cell lines (human) (UniProt Q13308); assay: flow cytometry, NCI-H520 cells, isotype control
[11] = target: human PTK7 on human cancer cell lines (human) (UniProt Q13308); assay: flow cytometry, HCT116 cells, isotype control
[12] = target: human PTK7 on human cancer cell lines (human) (UniProt Q13308); assay: flow cytometry, NCI-H358 cells, isotype control
[13] = target: human PTK7 on human cancer cell lines (human) (UniProt Q13308); assay: flow cytometry, HCC1954 cells, isotype control

Chain of human PTK7 on human cancer cell lines (human) (Q13308 31-1070 limits assumed): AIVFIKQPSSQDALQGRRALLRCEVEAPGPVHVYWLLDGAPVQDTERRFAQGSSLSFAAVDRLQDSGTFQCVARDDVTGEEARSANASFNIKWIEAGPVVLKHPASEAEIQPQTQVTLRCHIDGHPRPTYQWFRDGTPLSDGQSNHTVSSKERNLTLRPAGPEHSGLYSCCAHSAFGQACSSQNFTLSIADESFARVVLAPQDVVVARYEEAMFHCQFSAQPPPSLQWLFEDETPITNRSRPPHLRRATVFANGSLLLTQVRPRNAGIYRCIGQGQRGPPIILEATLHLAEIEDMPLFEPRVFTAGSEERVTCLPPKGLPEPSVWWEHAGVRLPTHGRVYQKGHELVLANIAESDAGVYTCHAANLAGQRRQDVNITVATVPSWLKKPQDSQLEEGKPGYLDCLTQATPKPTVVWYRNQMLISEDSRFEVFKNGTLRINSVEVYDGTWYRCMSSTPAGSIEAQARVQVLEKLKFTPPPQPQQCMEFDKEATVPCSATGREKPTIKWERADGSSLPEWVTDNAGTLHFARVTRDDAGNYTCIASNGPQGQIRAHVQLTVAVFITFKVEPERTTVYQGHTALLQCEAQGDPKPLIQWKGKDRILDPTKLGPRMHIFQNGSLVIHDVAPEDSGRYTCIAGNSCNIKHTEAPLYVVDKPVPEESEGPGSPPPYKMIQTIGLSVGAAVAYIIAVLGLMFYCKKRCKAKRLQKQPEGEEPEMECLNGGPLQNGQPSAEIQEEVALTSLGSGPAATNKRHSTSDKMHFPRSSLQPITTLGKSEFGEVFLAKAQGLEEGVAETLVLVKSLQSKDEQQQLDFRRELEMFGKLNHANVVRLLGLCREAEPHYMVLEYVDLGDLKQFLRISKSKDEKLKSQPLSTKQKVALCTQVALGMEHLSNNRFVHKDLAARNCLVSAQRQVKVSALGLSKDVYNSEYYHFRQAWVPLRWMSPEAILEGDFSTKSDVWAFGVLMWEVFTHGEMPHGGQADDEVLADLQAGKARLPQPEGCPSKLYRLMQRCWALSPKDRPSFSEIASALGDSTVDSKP

Human IgG1 (ISO control) (antibody) was tested, and the MFI [1] was 3860, the MFI [2] was 2850 and the MFI [3] was 5920. The MFI [4] was 3520, the MFI [5] was 3690 and the MFI [6] was 9840. It also gave an MFI [7] of 4630, an MFI [8] of 2230 and an MFI [9] of 1650. The MFI [10] was 2420, the MFI [11] was 3110 and the MFI [12] was 3360. The MFI [13] was 6340.

Source: patent US20260250421A1
